{
  "source": "paper PMC8460662",
  "target": "AlexaFluor594-tagged pre-formed fibrils (PFFs) of alpha-synuclein (UniProt P37840)",
  "assay": "two-colour coincidence detection (TCCD), single-molecule fluorescence; AF594-labelled α-SYN fibrils added to LTE expressing the N-GFP LB protein; fibrils at 1 µM (monomer-equivalent); stationary plate; 300 s traces, quadruplicate; Association Quotient Q",
  "data": [
    {"substance": "GABARAPL1 (from UniProt Q9H0R8 1-117) (natural protein)", "values": [
      {"measurement": "relative presence of GFP species in the aggregates (fraction bound to fibrils)", "result": 0.14}
    ]}
  ]
}
